Data set [1] deals with the molecule itself. The experiment in a line: electron microscopy of lipid monolayers.
Data set [2] deals with the molecule itself. The experiment in a line: electron microscopy of lipid monolayers. This is another data set of the same source.
Data set [3] concerns the molecule itself. Nature of the data set: electron microscopy of lipid monolayers. The source holds these as a separate data set.
Data set [4] deals with T1, Cdc12 (S. cerevisiae, UniProt P32468 1-407).
T1 sequence (looked up): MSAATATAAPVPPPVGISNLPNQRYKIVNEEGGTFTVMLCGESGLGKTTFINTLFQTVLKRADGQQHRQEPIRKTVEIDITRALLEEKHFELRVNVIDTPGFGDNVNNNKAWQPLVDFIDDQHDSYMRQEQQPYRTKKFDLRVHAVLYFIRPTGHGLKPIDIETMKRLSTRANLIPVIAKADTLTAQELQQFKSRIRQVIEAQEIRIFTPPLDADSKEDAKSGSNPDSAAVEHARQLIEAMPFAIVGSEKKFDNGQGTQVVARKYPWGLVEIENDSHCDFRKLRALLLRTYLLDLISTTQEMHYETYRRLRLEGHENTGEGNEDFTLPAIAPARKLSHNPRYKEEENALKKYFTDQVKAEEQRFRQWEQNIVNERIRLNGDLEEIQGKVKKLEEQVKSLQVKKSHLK
Nature of the data set: negative-stain electron microscopy.

From paper PMC3005623 (Journal of molecular biology, 2010) come the findings set out here.

Where a chain is given by its changes, count along the chain named. Names and notes keep the numbering of the source. Like-named read-outs stand apart in the source and are kept apart here.

B1: Cdc12–(His)6-Cdc3–Cdc10–Cdc11(Δ306–415) complex (complex, S. cerevisiae)
chain 1: T1 sequence (looked up)
chain 2: MSLKEEQVSIKQDPEQEERQHDQFNDVQIKQESQDHDGVDSQYTNGTQNDDSERFEAAESDVKVEPGLGMGITSSQSEKGQVLPDQPEIKFIRRQINGYVGFANLPKQWHRRSIKNGFSFNLLCVGPDGIGKTTLMKTLFNNDDIEANLVKDYEEELANDQEEEEGQGEGHENQSQEQRHKVKIKSYESVIEENGVKLNLNVIDTEGFGDFLNNDQKSWDPIIKEIDSRFDQYLDAENKINRHSINDKRIHACLYFIEPTGHYLKPLDLKFMQSVYEKCNLIPVIAKSDILTDEEILSFKKTIMNQLIQSNIELFKPPIYSNDDAENSHLSERLFSSLPYAVIGSNDIVENYSGNQVRGRSYPWGVIEVDNDNHSDFNLLKNLLIKQFMEELKERTSKILYENYRSSKLAKLGIKQDNSVFKEFDPISKQQEEKTLHEAKLAKLEIEMKTVFQQKVSEKEKKLQKSETELFARHKEMKEKLTKQLKALEDKKKQLELSINSASPNVNHSPVPTKKKGFLR
chain 3: MDPLSSVQPASYVGFDTITNQIEHRLLKKGFQFNIMVVGQSGLGKSTLINTLFASHLIDSATGDDISALPVTKTTEMKISTHTLVEDRVRLNINVIDTPGFGDFIDNSKAWEPIVKYIKEQHSQYLRKELTAQRERFITDTRVHAILYFLQPNGKELSRLDVEALKRLTEIANVIPVIGKSDTLTLDERTEFRELIQNEFEKYNFKIYPYDSEELTDEELELNRSVRSIIPFAVVGSENEIEINGETFRGRKTRWSAINVEDINQCDFVYLREFLIRTHLQDLIETTSYIHYEGFRARQLIALKENANSRSSAHMSSNAIQR
chain 4: MSGIIDASSALRKRKHLKRGITFTVMIVGQSGSGRSTFINTLCGQQVVDTSTTILLPTDTSTEIDLQLREETVELEDDEGVKIQLNIIDTPGFGDSLDNSPSFEIISDYIRHQYDEILLEESRVRRNPRFKDGRVHCCLYLINPTGHGLKEIDVEFIRQLGSLVNIIPVISKSDSLTRDELKLNKKLIMEDIDRWNLPIYNFPFDEDEISDEDYETNMYLRTLLPFAIIGSNEVYEMGGDVGTIRGRKYPWGILDVEDSSISDFVILRNALLISHLHDLKNYTHEILYERYRTEALSGESVAAES
On to B1, for which the binding result in data set [1] is “binds”.

B2: (His)6–Cdc12-Cdc10-Cdc3 complex (complex, S. cerevisiae)
chain 1: T1 sequence (looked up)
chain 2: B1 chain 3
chain 3: B1 chain 2
For B2, the binding result in data set [2] is reported as “binds”.

B3: (His)6–Cdc12-Cdc11-Cdc3(G261V) complex (complex, S. cerevisiae)
chain 1: T1 sequence (looked up)
chain 2: MSGIIDASSALRKRKHLKRGITFTVMIVGQSGSGRSTFINTLCGQQVVDTSTTILLPTDTSTEIDLQLREETVELEDDEGVKIQLNIIDTPGFGDSLDNSPSFEIISDYIRHQYDEILLEESRVRRNPRFKDGRVHCCLYLINPTGHGLKEIDVEFIRQLGSLVNIIPVISKSDSLTRDELKLNKKLIMEDIDRWNLPIYNFPFDEDEISDEDYETNMYLRTLLPFAIIGSNEVYEMGGDVGTIRGRKYPWGILDVEDSSISDFVILRNALLISHLHDLKNYTHEILYERYRTEALSGESVAAESIRPNLTKLNGSSSSSTTTRRNTNPFKQSNNINNDVLNPASDMHGQSTGENNETYMTREEQIRLEEERLKAFEERVQQELLLKRQELLQREKELREIEARLEKEAKIKQEE
chain 3: B1 chain 2 with G261V
On to B3, for which the binding result in data set [3] is given as “binds”.

B4: Cdc3(G261V) (natural protein, S. cerevisiae, UniProt P32457 1-520, looked up)
chain: B1 chain 2 with G261V
As for B4, the binding result in data set [3] was “binds”.

B5: Cdc11(Δ2–18) (natural protein, S. cerevisiae, UniProt P32458 1-415, looked up)
chain: MRGITFTVMIVGQSGSGRSTFINTLCGQQVVDTSTTILLPTDTSTEIDLQLREETVELEDDEGVKIQLNIIDTPGFGDSLDNSPSFEIISDYIRHQYDEILLEESRVRRNPRFKDGRVHCCLYLINPTGHGLKEIDVEFIRQLGSLVNIIPVISKSDSLTRDELKLNKKLIMEDIDRWNLPIYNFPFDEDEISDEDYETNMYLRTLLPFAIIGSNEVYEMGGDVGTIRGRKYPWGILDVEDSSISDFVILRNALLISHLHDLKNYTHEILYERYRTEALSGESVAAESIRPNLTKLNGSSSSSTTTRRNTNPFKQSNNINNDVLNPASDMHGQSTGENNETYMTREEQIRLEEERLKAFEERVQQELLLKRQELLQREKELREIEARLEKEAKIKQEE
Take B5: in data set [4], the “percent of particles that are heptamers” value came to 5.4%.
